Data reported in article doi:10.1101/2024.07.21.604498.

Target: hERG channel with a deleted PAS domain fused to Citrine (S620T) (human) (UniProt Q12809)
Experiment: FRET or BRET

hERG PAS domain fused to CFP (from UniProt Q12809 1-135) (domain or fragment)
Ratio A (F436/F500): 0.37
Ratio A-Ratio A0 (proportional to FRET efficiency): 0.21
